Assay [1] addresses His-tagged canine IL-31 (interleukin 31) recombinant protein (canine). Nature of the assay: BLI (Gator), biotinylated antibody on streptavidin probe, canine IL-31 as analyte.
Assay [2] has the same target. Nature of the assay: cell-based or functional assay.

B1: 7475-mHvKv-canIgGB (antibody, V domains shown)
VH: EVKLVESGEGLVKPGGSLKLSCAASGFTFSSYAMSWVRQTPEKRLEWVAYISNGGDYIFYADTVKGRFTISRDNARNTLYLQMSSLKSEDTAMYYCTRRGHYNTSSYWYFDVWGTGTTVTVSS
VL: DIVMTQSPKSMSMSVGERVTLSCKASENVGTYVSWYQQKPEQSPKLLIYGASNRYTGVPDRFTGSGSATDFTLTISSVQAEDLADYHCGQSYSYPPTFGAGTKLELKR
As usually defined, the Kd is the free concentration of one partner at which half of the binding sites on the other are occupied at equilibrium, for simple one-to-one binding. A word on the koff: it is the first-order rate constant of dissociation. As a reminder, the kon is a measure of how fast the partners come together. On to B1, for which, in assay [1], the Kd was determined as 1.01 nM, the koff came to 0.000251 s⁻¹ and the kon was determined as 250000 M⁻¹ s⁻¹. Further, the pSTAT IC50 (µg/mL) in assay [2] came out at 6.7 µg/mL.

B2: 6465-H3K3-canIgGB (antibody, V domains shown)
VH: EVQLVESGGDLVKPGGSLRLSCVASGYSFTNYYLYWVRQAPGKGLEWVAELNPRNGGTNLNAKFKTRFTISRDNAKNMAYLQMNSLRAEDTAVYYCTRGGTTVVVRDVMDFWGQGTLVTVSS
VL: DIVMTQTPLSLSVSPGEPASISCRASESVDSYGNSFMHWYRQKPGQSPQLLIYRASNLESGVPDRFSGSGSGTDFTLRISRVEADDAGVYYCQQSNEDPYTFGQGTKLEIKR
Consider B2, for which, in assay [1], the dissociation constant (Kd) was 2.02 nM, the koff worked out at 0.00164 s⁻¹ and the on-rate constant (kon) was determined as 812000 M⁻¹ s⁻¹. In addition, in assay [2], the pSTAT IC50 (µg/mL) was 7.2 µg/mL.

B3: 6465-H1K1-canIgGB (antibody, V domains shown)
VH: EVQLVESGGDLVKPGGSLRLSCVASGYSFTNYYLYWVRQAPGKGLEWVGELNPRNGGTNLNAKFKTRFTISVDKAKNMAYLQMNSLRAEDTAVYYCTRGGTTVVVRDVMDFWGQGTLVTVSS
VL: EIVLTQTPLSLAVTPGELATISCRASESVDSYGNSFMHWYLQKPGQTPRLLIYRASNLESGVSDRFSGSGSRTDFTLKISRVEAEDVGVYYCQQSNEDPYTFGQGTKLEIKR
Take B3: in assay [1], the Kd is 3.21 nM, the koff turned out to be 0.000979 s⁻¹ and the kon was determined as 305000 M⁻¹ s⁻¹. The pSTAT IC50 (µg/mL) in assay [2] came out at 7.5 µg/mL.

B4: 7475-H1K1-canIgGB (antibody, V domains shown)
VH: EVQLVESGGDLVKPGGSLRLSCVASGFTFSSYAMSWVRQAPGKGLQWVAYISNGGDYIFYADTVKGRFTISRDNARNTLYLQMNSLRSEDTAVYYCTRRGHYNTSSYWYFDVWGQGTLVTVSS
VL: EIVMTQSPASLSLSQEEKVTITCKASENVGTYVSWYQQKPGQAPKLLIYGASNRYTGVPSRFSGSGSGTDFTFTISSLEPEDVAVYYCGQSYSYPPTFGAGTKVELKR
Turning to B4, in assay [1], the Kd was 6.73 nM, the koff was 0.00156 s⁻¹ and the kon amounted to 231000 M⁻¹ s⁻¹. Also, the pSTAT IC50 (µg/mL) in assay [2] stood at 8.4 µg/mL.

B5: 7475-H1K2-canIgGB (antibody, V domains shown)
VH: EVQLVESGGDLVKPGGSLRLSCVASGFTFSSYAMSWVRQAPGKGLQWVAYISNGGDYIFYADTVKGRFTISRDNARNTLYLQMNSLRSEDTAVYYCTRRGHYNTSSYWYFDVWGQGTLVTVSS
VL: EIVMTQSPASLSLSQEEKVTITCKASENVGTYVSWYQQKPGQAPKLLIYGASNRYTGVPSRFSGSGSATDFTLTISSVEPEDVAVYYCGQSYSYPPTFGAGTKVELKR
On to B5, for which, in assay [1], the Kd came out at 6.37 nM, the koff stood at 0.000614 s⁻¹ and the association rate constant (kon) was found to be 96500 M⁻¹ s⁻¹. The pSTAT IC50 (µg/mL) in assay [2] was 8.1 µg/mL.

B6: 7475-H2K2-canIgGB (antibody, V domains shown)
VH: EVQLVESGGDLVKPGGSLRLSCVASGFTFSSYAMSWIRQAPGKGLQWVAYISNGGDYIFYADTVKGRFTISRDNAKNTLYLQMNSLRAEDTAVYYCTRRGHYNTSSYWYFDVWGQGTLVTVSS
VL: EIVMTQSPASLSLSQEEKVTITCKASENVGTYVSWYQQKPGQAPKLLIYGASNRYTGVPSRFSGSGSATDFTLTISSVEPEDVAVYYCGQSYSYPPTFGAGTKVELKR
For B6, in assay [1], the Kd was 3.61 nM, the koff worked out at 0.000481 s⁻¹ and the kon amounted to 133000 M⁻¹ s⁻¹. Moreover, the pSTAT IC50 (µg/mL) in assay [2] amounted to 7.1 µg/mL.

B7: 7475-H2K1-canIgGB (antibody, V domains shown)
VH: EVQLVESGGDLVKPGGSLRLSCVASGFTFSSYAMSWIRQAPGKGLQWVAYISNGGDYIFYADTVKGRFTISRDNAKNTLYLQMNSLRAEDTAVYYCTRRGHYNTSSYWYFDVWGQGTLVTVSS
VL: EIVMTQSPASLSLSQEEKVTITCKASENVGTYVSWYQQKPGQAPKLLIYGASNRYTGVPSRFSGSGSGTDFTFTISSLEPEDVAVYYCGQSYSYPPTFGAGTKVELKR
For the molecule B7, in assay [1], the Kd stood at 5.43 nM, the koff is 0.00055 s⁻¹ and the kon worked out at 101000 M⁻¹ s⁻¹. In addition, the pSTAT IC50 (µg/mL) in assay [2] is 7.9 µg/mL.

B8: 7475-H3K2-canIgGB (antibody, V domains shown)
VH: EVQLVESGGDLVKPGGSLRLSCVASGFTFSSYAMSWVRQAPGKGLQWVARISNGGDYIFYADTVKGRFTISRDNAKNTLYLQMNSLRAEDTAMYYCTRRGHYNTSSYWYFDVWGQGTLVTVSS
VL: EIVMTQSPASLSLSQEEKVTITCKASENVGTYVSWYQQKPGQAPKLLIYGASNRYTGVPSRFSGSGSATDFTLTISSVEPEDVAVYYCGQSYSYPPTFGAGTKVELKR
Turning to B8, in assay [1], the Kd was 5.4 nM, the off-rate (koff) was determined as 0.000539 s⁻¹ and the kon was 100000 M⁻¹ s⁻¹. Moreover, the pSTAT IC50 (µg/mL) in assay [2] was 7.8 µg/mL.

B9: 7475-H1K3-canIgGB (antibody, V domains shown)
VH: EVQLVESGGDLVKPGGSLRLSCVASGFTFSSYAMSWVRQAPGKGLQWVAYISNGGDYIFYADTVKGRFTISRDNARNTLYLQMNSLRSEDTAVYYCTRRGHYNTSSYWYFDVWGQGTLVTVSS
VL: EIVMTQSPASLSLSQEEKVTITCKASENVGTYVSWYQQKPGQAPKLLIYGASNRYTGVPSRFSGSGSGTDFSFTISSLEPEDVAVYYCGQSYSYPPTFGAGTKVELKR
Turning to B9, in assay [1], the Kd stood at 6.51 nM, the koff amounted to 0.00192 s⁻¹ and the kon came out at 295000 M⁻¹ s⁻¹. Moreover, the pSTAT IC50 (µg/mL) in assay [2] amounted to 8.2 µg/mL.

B10: 7475-H2K3-canIgGB (antibody, V domains shown)
VH: EVQLVESGGDLVKPGGSLRLSCVASGFTFSSYAMSWIRQAPGKGLQWVAYISNGGDYIFYADTVKGRFTISRDNAKNTLYLQMNSLRAEDTAVYYCTRRGHYNTSSYWYFDVWGQGTLVTVSS
VL: EIVMTQSPASLSLSQEEKVTITCKASENVGTYVSWYQQKPGQAPKLLIYGASNRYTGVPSRFSGSGSGTDFSFTISSLEPEDVAVYYCGQSYSYPPTFGAGTKVELKR
For B10, in assay [1], the equilibrium dissociation constant (Kd) came to 4.67 nM, the koff stood at 0.000759 s⁻¹ and the kon amounted to 162000 M⁻¹ s⁻¹. Moreover, in assay [2], the pSTAT IC50 (µg/mL) stood at 7.2 µg/mL.

B11: 7475-H3K1-canIgGB (antibody, V domains shown)
VH: EVQLVESGGDLVKPGGSLRLSCVASGFTFSSYAMSWVRQAPGKGLQWVARISNGGDYIFYADTVKGRFTISRDNAKNTLYLQMNSLRAEDTAMYYCTRRGHYNTSSYWYFDVWGQGTLVTVSS
VL: EIVMTQSPASLSLSQEEKVTITCKASENVGTYVSWYQQKPGQAPKLLIYGASNRYTGVPSRFSGSGSGTDFTFTISSLEPEDVAVYYCGQSYSYPPTFGAGTKVELKR
For B11, in assay [1], the equilibrium dissociation constant (Kd) was 4.84 nM, the koff was 0.000542 s⁻¹ and the kon came out at 112000 M⁻¹ s⁻¹. Besides, in assay [2], the pSTAT IC50 (µg/mL) was 7.5 µg/mL.

B12: 6465-mHvKv-canIgGB (antibody, V domains shown)
VH: EVQLQQSGAELVRPGASVRLSCKASGYSFTNYYLYWVKQRPGQGLEWIGELNPRNGGTNLNAKFKTKATLTVDKSSNTAYMRLSSLTSEDSAVYYCTRGGTTVVVRDVMDFWGQGTSVTVSS
VL: DIELTQSPASLAVSLGQRATISCRASESVDSYGNSFMHWYQQKPGQPPKLLIYRASNLESGIPARFSGSGSRTDFTLTINPVEADDVATYYCQQSNEDPYTFGGGTKLEIKR
With B12, in assay [1], the Kd came to 2.09 nM, the off-rate (koff) was found to be 0.00106 s⁻¹ and the kon was 507000 M⁻¹ s⁻¹. The pSTAT IC50 (µg/mL) in assay [2] was 7.1 µg/mL.

Source of the values: patent EP4745156A1.
